Measurements taken from PMC11329664.

Target: Alexa Fluor 488-conjugated human CD40-CA-His12 (ectodomain of human CD40) (human)
Assay: scanning fluorescence correlation spectroscopy with brightness-transit statistics (sFCS BTS); CD40-AF488-His tethered through Ni-NTA-DGS to a BSA-blocked supported lipid bilayer, titrated to higher surface densities (100 and 175 molecules/µm^2); brightness and transit time compared with the monomeric control AF488-His; 24 °C

Substance: Alexa Fluor 488-conjugated human CD40-CA-His12 (ectodomain of human CD40) (domain or fragment)
- stoichiometry N: > 2
